Like-named read-outs stand apart in the source and are kept apart here.
Assays:
[1] = cited from earlier work
[2] = IAsys optical biosensor, affinity of avidin and avidin mutants towards 2-iminobiotin; format: binding
Procedure: (§1) Reversibility of biotin binding was measured for avidin and the mutants with an IAsys optical biosensor (Laitinen, O. H. et al., FEBS Lett 461 (1999), 52-8). Protein samples were allowed to bind to a biotin-aminosilane cuvette in PBS containing 1 M NaCl. After the equilibrium was reached, biotin-containing buffer was added and the dissociation of the proteins was monitored. The affinities of the proteins towards 2-iminobiotin were determined with an IAsys optical biosensor (Marttila, A. T. et al. FEBS Lett 441 (1998), 313-7). Biotin-binding activity of the mutants Avd-ci and Avd-ccci after heat treatment was studied with a microtiter plate assay. Protein samples, 5 μg/ml concentration in PBS, were heated for various time periods at 99.9° C. and then chilled on ice. The samples were transferred to a Nunc Maxisorp-plate and incubated at 37° C. for 2 h. The wells were washed three times with PBS-Tween (0.05% v/v). After that the wells were blocked with PBS containing 1% BSA at 37° C. for 30 minutes and washed again with PBS-Tween. Next, biotinylated alkaline phosphatase (Sigma) in PBS, 1% BSA was added and incubated at 37° C. for one hour. Once again, the wells were washed with PBS-Tween and the PNPP substrate in DEA buffer (1 mg/ml) was applied to the wells. The absorbances at 405 nm were measured after incubation for 45 minutes.

[3] = Differential scanning calorimetry of the avidin mutants; format: physicochemical; conditions: for Tm: DSC, 100 mM Na-phosphate buffer pH 7.4
Procedure: In order to study the thermal stability of the purified avidin mutants, they were subjected to analysis by differential scanning calorimetry. A Nano II differential scanning calorimeter (Calorimetric Science Corporation, Provo, Utah) was used. […] The reference cell was filled with the same buffer that the sample proteins were dissolved in (100 mM Na-phosphate buffer pH 7.4). The thermograms were recorded as a function of temperature, between 25 and 130° C. at a temperature scan rate of 55.6° C./h. The baselines were subtracted and the transition midpoints (Tm) of the samples were calculated using proprietary software provided by the instrument manufacturer.

[4] = 2-iminobiotin surface; from Nordlund 2003; read-out: Kd detected from the equilibrium response data; cited from earlier work
[5] = test system: biotinylated alkaline phosphatase; test: Microtiter plate assay, biotin-binding activity after heat treatment at 99.9° C.; format: physicochemical; conditions: 99.9° C. for various time periods
Procedure: as §1, with “After that the wells were blocked with PBS containing 1% BSA at 37° C. for 30 minutes and washed again with PBS-Tween. Next, biotinylated alkaline phosphatase (Sigma) in PBS, 1% BSA was added and incubated at 37° C. for one hour. Once again, the wells were washed with PBS-Tween and the PNPP substrate in DEA buffer (1 mg/ml) was applied to the wells.” left out
Biotin-binding activity of the proteins after heat treatment was studied with a microtiter plate assay (Nordlund, H. R., Laitinen, O. H., Uotila, S. T., Nyholm, T., Hytönen, V. P., Slotte, J. P. & Kulomaa, M. S. (2003) J. Biol. Chem. 278, 2479-2483). […] The absorbencies at 405 nm were measured after incubation for 45 minutes.

[6] = previously published (Nordlund 2003; Gonzalez 1999)

B1: Avd-ccci: Avidin mutant D86C, I106C, I117C with six intermonomeric disulphide bridges (protein, UniProt P02701 25-152, looked up, variant D86C I106C I117C)
Avidin: ARKCSLTGKWTNDLGSNMTIGAVNSRGEFTGTYITAVTATSNEIKESPLHGTQNTINKRTQPTFGFTVNWKFSESTTVFTGQCFICRNGKEVLKTMWLLRSSVNDCGDDWKATRVGCNIFTRLRTQKE
In the case of B1, the ΔTm ([1]; change in Tm upon biotin addition, previously published values) is given as 27.3 °C, the “DSC Tm (+biotin)” value [1, 6] is given as 122.0 ± 0.1 °C and the “DSC Tm(−biotin)” value [1, 6] is given as 94.7 ± 0.5 °C. The Kd [2] was 290 nM, the ΔTm ([3]; + biotin, difference in Tm compared to wt avidin + biotin) was 3.8 °C and the Tm ([3]; + biotin (biotin:avidin molar ratio 3:1)) was 122.0 ± 0.1 °C. The Tm ([3]; without biotin) was 94.7 ± 0.5 °C, the ΔTm ([3]; without biotin, difference in Tm compared to wt avidin) was 9.2 °C and the Kd [4] was 290 nM. For the same molecule, the “biotin-binding activity after heat treatment” value [5] was “remained active, in the sense of binding biotin, longer than the wild-type avidin”.
